Data published in paper PMC11051826, “Screening and Application of DNA Aptamers for Heparin-Binding Protein”.
Positions count from the first letter of the chain named.

T1: Heparin-binding protein (HBP) (Homo sapiens, UniProt P20160 27-248)
T1 sequence: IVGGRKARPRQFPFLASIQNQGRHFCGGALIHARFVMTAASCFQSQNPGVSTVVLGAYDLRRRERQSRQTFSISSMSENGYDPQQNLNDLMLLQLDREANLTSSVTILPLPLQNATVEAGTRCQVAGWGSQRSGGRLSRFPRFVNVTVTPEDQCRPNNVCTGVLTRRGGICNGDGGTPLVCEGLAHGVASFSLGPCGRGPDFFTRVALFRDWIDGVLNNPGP

T2: C-reactive protein (CRP) (UniProt P02741 19-224)
T2 sequence: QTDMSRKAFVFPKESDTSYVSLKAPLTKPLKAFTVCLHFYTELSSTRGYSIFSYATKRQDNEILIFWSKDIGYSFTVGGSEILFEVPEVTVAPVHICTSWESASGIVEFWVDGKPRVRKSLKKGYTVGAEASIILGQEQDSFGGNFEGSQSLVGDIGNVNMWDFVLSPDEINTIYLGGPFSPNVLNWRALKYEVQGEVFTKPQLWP

T3: Procalcitonin (PCT) (UniProt P01258 26-141)
T3 sequence: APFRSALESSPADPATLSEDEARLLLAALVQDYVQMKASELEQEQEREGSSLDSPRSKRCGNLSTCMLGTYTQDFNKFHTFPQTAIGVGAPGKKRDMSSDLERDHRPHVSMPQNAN

T4: Serum amyloid A1 (SAA1) (UniProt P0DJI8 19-122)
T4 sequence: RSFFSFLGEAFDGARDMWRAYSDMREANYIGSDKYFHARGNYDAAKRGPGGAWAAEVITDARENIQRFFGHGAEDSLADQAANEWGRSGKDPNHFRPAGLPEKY

B1: Apt-12 (ssDNA)
DNA: TTCAGCACTCCACGCATAGCTTCACCTACTGGCATATGCCTCAGTCCACTCCTGGACCTATGCGTGCTACCGTGAA
B2: Apt-05 (ssDNA)
DNA: TTCAGCACTCCACGCATAGCTTCACCTACACCGCGACCGCGTTCAGCCTCTGCAGGCCTATGCGTGCTACCGTGAA
B3: Apt-03 (ssDNA)
DNA: TTCAGCACTCCACGCATAGCTTCACCTACGAACGCCAGTGACAGCACCGATCAGTGCCTATGCGTGCTACCGTGAA
B4: Apt-04 (ssDNA)
DNA: TTCAGCACTCCACGCATAGCTTCATCTACCCCGCCAAGGTCAGCCACGTCAGTGTGCCTATGCGTGCTACCGTGAA
B5: Apt-14 (ssDNA)
DNA: TTCAGCACTCCACGCATAGCTTCACCTACCGCCAATCAGCTCAGTGTGTCTCCACACCTATGCGTGCTACCGTGAA
B6: Apt-08 (ssDNA)
DNA: TTCAGCACTCCACGCATAGCTCATCGCGAGCGACACGTTACCGTGCTTTACTACCGCCTATGCGTGCTACCGTGAA
B7: Apt-18 (ssDNA)
DNA: TTCAGCACTCCACGCATAGCTTTACCTACCGCATCGCTCAGTCAACCATTGGTGGACCTATGCGTGCTACCGTGAA
B8: Apt-07 (ssDNA)
DNA: TTCAGCACTCCACGCATAGCCTTGCCTACCGGACGAAGTACTCAGTCACTCCGTGACCTATGCGTGCTACCGTGAA
B9: Apt-20 (ssDNA)
DNA: TTCAGCACTCCACGCATAGCTTCACCTACCGCCGAAGGCTCAGTCCGTGCTTCGGACCTATGCGTGCTACCGTGAA
B10: Apt-09 (ssDNA)
DNA: TTCAGCACTCCACGCATAGCCTTGCCTACCGATCCTGGATCTCAGCTGTACCACAGCCTATGCGTGCTACCGTGAA
B11: Apt-15 (ssDNA)
DNA: TTCAGCACTCCACGCATAGCTTCACCTACTGCCCTAGCTCAGCCGTCTCCATCCGGCCTATGCGTGCTACCGTGAA
B12: Apt-01 (ssDNA)
DNA: TTCAGCACTCCACGCATAGCTTCACCTACCGCAATCCGTTGCTCAGTGCTACCGCACCTATGCGTGCTACCGTGAA
B13: Apt-02 (ssDNA)
DNA: TTCAGCACTCCACGCATAGCTTCACCTACCGCGCAGCTCAGTCGTTGCCCACACGACCTATGCGTGCTACCGTGAA
B14: Apt-13 (ssDNA)
DNA: B6 DNA with G28C, A29T, C36T, T38C, C41G, G43A, C55T

What follows are binders tested against T1, Heparin-binding protein (HBP) (assay: SPR; SPR: Biacore T200, CM5 with 815 RU HBP, aptamer 0-1 uM in PBS (NaCl 137 mM, KCl 2.67 mM, Na2HPO4 10 mM, KH2PO4 2 mM, pH 7.4; composition given for CD), 25 C; flow: 500 nM aptamer, PBS, room temperature, 60 min). Settings: protein: commercial.
B1 was tested, and the binding signal was 107 RU.
Binder B2 has a binding signal of 132 RU.
B3 gave a binding signal of 119 RU.
With B4 the binding signal was 121 RU.
For B5, the binding signal was 50.3 RU.
In the case of B6, the binding signal is reported as 79 RU.
B7 gave a binding signal of 41.2 RU.
For B8, the binding signal was 76.2 RU.
B9 gave a binding signal of 99 RU.
With B10 the binding signal was 87.5 RU.
Work on B11 yielded a binding signal of 72.5 RU.

Same assay, conditions: protein: commercial; label: FAM in flow cytometry
Binder B12 has a binding signal of 424 RU.
B13 was tested, and the binding signal was 162 RU.

These binders were tested against T1, Heparin-binding protein (HBP) (assay: SPR; HBP immobilized, PBS, 25 C; SPR: Biacore T200, CM5 with 815 RU HBP, aptamer 0-1 uM in PBS (NaCl 137 mM, KCl 2.67 mM, Na2HPO4 10 mM, KH2PO4 2 mM, pH 7.4; composition given for CD), 25 C; flow: 500 nM aptamer, PBS, room temperature, 60 min). Settings: protein: commercial; label: FAM in flow cytometry.
B14 showed a Kd of 1.04 nM.
B12 showed a Kd of 3.42 nM.
B13 showed a Kd of 1.44 nM.

These binders were tested against Interleukin-6 (IL-6) (UniProt P05231 30-212) (assay: flow cytometry (magnetic beads); 500 nM aptamer; SPR: Biacore T200, CM5 with 815 RU HBP, aptamer 0-1 uM in PBS (NaCl 137 mM, KCl 2.67 mM, Na2HPO4 10 mM, KH2PO4 2 mM, pH 7.4; composition given for CD), 25 C; flow: 500 nM aptamer, PBS, room temperature, 60 min). Settings: protein: commercial; label: FAM in flow cytometry.
Interleukin-6 (IL-6), sequence (P05231 30-212): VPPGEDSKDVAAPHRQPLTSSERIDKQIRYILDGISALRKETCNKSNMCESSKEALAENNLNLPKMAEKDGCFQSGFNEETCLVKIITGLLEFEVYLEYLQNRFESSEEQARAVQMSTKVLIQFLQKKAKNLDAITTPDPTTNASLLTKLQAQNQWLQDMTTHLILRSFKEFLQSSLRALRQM
B14: no binding.
B12: no binding.
B13: no binding.

What follows are binders tested against T2, C-reactive protein (CRP) in the same assay as above. Settings: protein: commercial; chain copies: 5; label: FAM in flow cytometry.
B14: no binding.
B12: no binding.
B13: no binding.

What follows are binders tested against T3, Procalcitonin (PCT) in the same assay as above. Settings: protein: commercial; label: FAM in flow cytometry.
B14: no binding.
B12: no binding.
B13: no binding.

What follows are binders tested against T4, Serum amyloid A1 (SAA1) in the same assay as above. Settings: protein: commercial; label: FAM in flow cytometry.
B14: no binding.
B12: no binding.
B13: no binding.
